Test system: MS2 coat protein
Test: apparent KD of MS2 coat protein; designed switch direction (-1 OFF switch, 1 ON switch): -1; higher = weaker reporter binding
Summary of the method: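 The buffer was Tris-HCl pH 7.5 with KCl, MgCl2, BSA, DTT, tRNA and Tween-20. In it, SNAP-549-labelled MS2 coat protein was titrated in doubling steps from 0.7 or 1.5 nM to 3 µM over chip-bound RNA switches transcribed by stalled E. coli RNA polymerase on Illumina chips. Apparent KD is the per-design median over clusters of curve fits to normalised fluorescence.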

[1] = Eterna round: R95, input ligand: FMN 200 uM
[2] = Eterna round: R95, input ligand: microRNA oligo, concentration not stated
[3] = Eterna round: R95, input ligand: none
[4] = input ligand: microRNA oligo, concentration not stated

Sequence | apparent KD of MS2 coat protein [1] [nM] | apparent KD of MS2 coat protein [2] [nM] | apparent KD of MS2 coat protein [3] [nM] | apparent KD of MS2 coat protein [4] [nM] | apparent KD of MS2 coat protein (input ligand: FMN 200 uM) [nM] | apparent KD of MS2 coat protein (input ligand: none) [nM]
AUUGUAGAUGUGAGGAUAUCGUAGAUUUUUUGAAACGAGAAGGCACAUGAGGAUCACCCAUGUAAGAUGUAGGU [JR_BMOE4_Sub053] (puzzle: Brourd's mod of Exclusion 4) | 45.8 | 118 | 298 |  |  | 
AUUGUAUAGGAAGGAUAUAGAAUAUUAUUUUAACAUGAGGAUCACCCAUGUAACCUUAUGUGUAGCUAGAAGGUCCAUUUAUUA [Title] (Eterna round: R96, puzzle: Exclusion NG 2) |  |  |  | 90.2 |  | 
AUUGUUUAUGUAGGAUAUGCCUGGCGUGCCUUCGCAGAAGGACAUGAGGAUCACCCAUGUAUUGCGGUCUGCGUUCAGAUCGCG [salish99_ExNG1_r4_026] (Eterna round: R96, puzzle: Exclusion NG 1) |  |  |  | 34.3 | 65.3 | 47.5
AUUGUUUAUGUAGGAUAUGCCUGGCGUGCCUUUGCAGAAGGACAUGAGGAUCACCCAUGUAUUGCGGUCUGCGUUCAGAUCGCU [salish99_ExNG1_r4_033] (Eterna round: R96, puzzle: Exclusion NG 1) |  |  |  | 28.7 | 44.4 | 30.7
AUUGUUUGAUACCUCUAAUACAUGAGGAUCACCCAUGUUAUCGAGGAUAUGCAUUAGAGUGGUUAGCAGAAGGCGAAGUAAUUG [JR_ExcNG3_Sub030] (Eterna round: R96, puzzle: Exclusion NG 3) |  |  |  | 14.2 | 18.5 | 17.1
AUUUAACAUGAGGAUCACCCAUGUGAGGAUAUGUAAAUUUUAAACAAAUAGGAAAUGAACAGAAGGCACACCGG [JR_Exclusion1_Sub006] (puzzle: Exclusion 1) | 61.7 | 41.6 | 37 |  |  | 
AUUUAAUUUAAUAAGAUCACAUGAGGAUCACCCAUGUAUAUAUAGGAUAUCAGCUCGAAUAGAGCUGAGAAGGAUAUAUACAUG [ExNG3/8-A4] (Eterna round: R96, puzzle: Exclusion NG 3) |  |  |  | 15.4 |  | 
AUUUAGCAAGCCUGAUCCUACAUGAGGAUCACCCAUGUAGUUCGUCUUAUUUGAAGACAACACAAAAGUGUUGUCUU [Omei Mir OFFv1 B7] (Eterna round: R97, puzzle: Sensor, turn-off variant 1) |  |  |  |  | 18.3 | 18.5
AUUUCGGCAGGAUAUACAUGAGGAUCACCCAUGUAAAUUUUUCGUUUAACUUGAAUGUGUAGAAGGGCCAUUUA [Ex3 #61] (Eterna round: R97, puzzle: Exclusion 3) |  |  |  |  | 21.8 | 26.6
AUUUGGUCAGGAUAUUGUUAGUUUAGUUGUUUGUAUUAGUUCGAGAAGGGACAUGAGGAUCACCCAUGUGAUUU [Ex4 #75] (Eterna round: R97, puzzle: Exclusion 4) |  |  |  |  | 87.1 | 100
AUUUUAAUAUAGGAUAUCGAAAUAAUUAUUUAACGAGAAGGAUGAACAUGAGGAUCACCCAUGUGGUAUCAUGG [Mat - Exclusion 6 - JL Mod - D32] (puzzle: Exclusion 6) | 178 | 159 | 163 |  |  | 
AUUUUAAUAUAGGAUAUCGAAAUUAUUAUUUAACGAGAAGGAUAAACAUGAGGAUCACCCAUGUGGUAUCAUGG [JMFs Solution 1] (puzzle: Exclusion 6) | 138 | 134 | 196 |  |  | 
AUUUUAAUAUAGGAUAUCGAAAUUAUUAUUUAACGAGAAGGAUGAACAUGAGGAUCACCCAUGUGGUAUCAUGG [Mat - Exclusion 6 - JL Mod - D31] (puzzle: Exclusion 6) |  | 192 |  |  |  | 
AUUUUAAUAUAGGAUAUCGAUUUUAUUAUUUAACGAGAAGGAUAAACAUGAGGAUCACCCAUGUGGUAUCAUGG [JMFs Solution 3] (puzzle: Exclusion 6) |  | 123 |  |  |  | 
AUUUUAGAAGGAUAUUGACCGGUGGACAUGAGGAUCACCCAUGUCGUCCUGCCCAUUCCGUAAGAAGGUCUAGCGU [Eternabot (L1) Solution 96] (Eterna round: R97, puzzle: Exclusion 5) |  |  |  |  | 23.7 | 24.8
AUUUUAUAACAAGGAUAUACUAAACAUGAGGAUCACCCAUGUAAUAUUAUGAGUGAGAGAGAGAAGUAGAAGGUGUAUUAUUUU [JMF solution 1] (Eterna round: R96, puzzle: Exclusion NG 2) |  |  |  | 97.4 |  | 
AUUUUGUCAGGAUAUGACUAGAUGCACGAAAGUGCAUCUACUUAGAAGGGACAUGAGGAUCACCCAUGUAUUCC [Bring Us a Shrubbery-11] (puzzle: Exclusion 4) |  | 13.9 |  |  |  | 
AUUUUGUCAGGAUAUGAGUAGUAGGACGAAAGUGCUACUACUUAGAAGGGACAUGAGGAUCACCCAUGUCUUCC [Bring Us a Shrubbery-05] (puzzle: Exclusion 4) |  | 13.5 |  |  |  | 

Sequence | apparent KD of MS2 coat protein [1] [nM] | apparent KD of MS2 coat protein [2] [nM] | apparent KD of MS2 coat protein [3] [nM] | apparent KD of MS2 coat protein [4] [nM] | apparent KD of MS2 coat protein (input ligand: FMN 200 uM) [nM] | apparent KD of MS2 coat protein (input ligand: none) [nM]
AUUUUGUCAGGAUAUUGUUAGUUUAGUUGUUUGUAUUAGUUCGAGAAGGGACAUGAGGAUCACCCAUGUGAUAA [Ex4 #72] (Eterna round: R97, puzzle: Exclusion 4) |  |  |  |  | 71.9 | 62.6
AUUUUGUGAGGAUAUUAGUAGUAAAUGAAUAAAAUUAUUACUGAGAAGGCACAUGAGGAUCACCCAUGUUCCUA [Mat - Exclusion 4 - Eli Mod - D7] (Eterna round: R97, puzzle: Exclusion 4) |  |  |  |  | 175 | 19.2
AUUUUGUGAGGAUAUUAGUUGUAGAAAAUUGUUAGUAUAGCUGAGAAGGCACAUGAGGAUCACCCAUGUACAAC [JR_Ex4_Sub040] (Eterna round: R97, puzzle: Exclusion 4) |  |  |  |  | 31.1 | 18.1
AUUUUGUGAGGAUAUUAGUUUUAUAAUUUUAUUAGUUUAGCUGAGAAGGCACAUGAGGAUCACCCAUGUAAAUC [JR_Ex4_Sub045] (Eterna round: R97, puzzle: Exclusion 4) |  |  |  |  | 42.5 | 22.9
CAAAACACUGGAGGAUAUUGGAAAGGAAGUGUACAAGAAGGCCAGCUCUAACAUGAGGAUCACCCAUGUCCAGGGCAUGGGCAA [PowerStrip EXNG 1.12] (Eterna round: R96, puzzle: Exclusion NG 1) |  |  |  | 19.9 | 31.8 | 11.7
CAAAACCGAGGAUAUACUUCGGAGAUAAAGGUAAGUCAAAGACUUGAGGAUCACCCAAGUAGAAGGCGGACGGA [Laeded] (Eterna round: R97, puzzle: Exclusion 2) |  |  |  |  | 95.5 | 22.4
CAAAAGAGAGGAUAUACAUGAGGAUCACCCAUGUAAAGUCCGCUGGUUGUUCAGAUAUGUAGAAGGCUCGUGUC [EX3 C.5] (Eterna round: R97, puzzle: Exclusion 3) |  |  |  |  | 16.9 | 14.4
CAAAAGCUAGGAUAUUGAGGUGGGCACAUGAGGAUCACCCAUGUGGACCUCGAGCCUACGCAAGAAGGAGUAAAAU [Rioren] (puzzle: Exclusion 5) | 18 | 13.1 | 17 |  |  | 
CAAAAGGAAGGAUAUACAUGUUAAUUAUCCGAAGAUGUCGUACAUGAGGAUCACCCAUGUAGAAGGUCCAAAAC [Tiesbiused] (puzzle: Exclusion 2) |  | 27.1 |  |  |  | 
CAAAAUGUAUAAGGAUAUCUCGCCAAUAAAGGCAGAGAAGGUAUACCCACUUGAGGAUCACCCAAGUCACGUGUGCCUGGUGGA [Mutated MS2 EX1.25] (Eterna round: R96, puzzle: Exclusion NG 1) |  |  |  | 9.25 | 9.27 | 11
CAAAAUGUAUAAGGAUAUCUCGCCAAUAAAGGCAGAGAAGGUAUACCCACUUGAGGAUCACCCAAGUCAGGUGUGCCUGGUGGA [Mutated MS2 EX1.24] (Eterna round: R96, puzzle: Exclusion NG 1) |  |  |  | 7.61 | 7.87 | 10.9
CAAAUCUGAGGAUAUCGAUAUUUGUACAUGAGGAUCACCCAUGUCCUAUUUAUAAAAUCCCGAGAAGGCAGUGUAU [JR_E5_Sub095] (puzzle: Exclusion 5) |  | 16.2 |  |  |  | 
CAACCUCACGAGGAUAUCAAUGCUAGUUGGCGUUGAGAAGGCGUAACAUGAGGAUCACCCAUGUGGUGGCGUAU [Eternabot (Original) Solution 26] (Eterna round: R97, puzzle: Exclusion 6) |  |  |  |  | 1020 | 921
CAACGAAGUCGAGGAUAUGCCCACUCCGCAGCGGCAGAAGGCGACAUGAGGAUCACCCAUGUAACGGCUAACGGGAUGGGAAGG [Eternabot solution 7] (Eterna round: R96, puzzle: Exclusion NG 1) |  |  |  | 17.7 | 162 | 25.9
CAACGAUGAGGAUAUACAUGAGGAUCACCCAUGUGGUCCAGCAGCCAUUACGGCGAAGGUAGAAGGCGUUAUUA [Eternabot (L2) Solution 54] (Eterna round: R97, puzzle: Exclusion 3) |  |  |  |  | 349 | 386
CAACGUAGUAAGGAUAUCCGGCAAAAGGCUACAGGAGAAGGUACUACAUGAGGAUCACCCAUGUGGAACUGUAA [EX6 B.7] (Eterna round: R97, puzzle: Exclusion 6) |  |  |  |  | 16.8 | 16.1
CAAGCUUUGCGAGGAUAUGAUGGCCGAUAUGCCUCAGAAGGCGCAGAAACUUGAGGAUCACCCAAGUGAUGCAACGACGACCAU [Mutated MS2 EX1.12] (Eterna round: R96, puzzle: Exclusion NG 1) |  |  |  | 10.7 | 27.1 | 15.7
